Measurements published in patent publication US20060183159A1, “Method for engineering a protein by in vitro coevolution” (priority 2005, published 2006).
Entries after “also recorded” stand apart in the source; their conditions may differ.

Columns and labels:
progesterone = test: Yeast two-hybrid based cell growth assay, response to progesterone; details: in yeast; saturating ligand concentration 10^−5 M
Experimental: (§1) A yeast two-hybrid based cell growth assay was used to quantify the ligand activity of the wild-type and mutant hERαLBD in 96-well plates (Chen, et al. (2004) supra). Briefly, yeast cells harboring the plasmid containing the target hERαLBD and plasmid pGAD424 SRC-1 were grown to saturation (OD600 4-5) in 2-3 mL minimal medium lacking tryptophan and leucine, and then diluted to OD600 0.002 using minimal medium lacking tryptophan, leucine and histidine. Each well contained 200 μL diluted yeast cells and 0.2 μL of specified ligand dissolved in 100% ethanol (E2, testosterone, and progesterone) or DMSO (corticosterone). The 96-well plates were incubated at 30° C. for 24 hours and the cell density was measured at 600 nm using a SPECTRAMAX® plate reader (Molecular Devices, Sunnyvale, Calif.).

[1] = Competitive binding (RBA) with 2 nM [3H]-E2, progesterone
[2] = Competitive binding (RBA) with 2 nM [3H]-E2, testosterone
[3] = Competitive binding (RBA) with 2 nM [3H]-E2, corticosterone
corticosterone = test: Yeast two-hybrid based cell growth assay, response to corticosterone; details: in yeast; corticosterone 10^−4 M, 24 hours (up to four days at 30° C.)
Experimental: as §1

[4] = Scatchard analysis of E2 binding to wild-type and mutant hERαLBD proteins; details: n = 2-3, error = range (n = 2) or S.E. (n > 2)
[5] = RBA = EC50^E2/EC50^ligand × 100, 2 nM [3H]-E2

B1: Pg10-1: hERαLBD variant with Glu353Gln, Gly390Asp, His524Asn, Leu536His, Thr585Ser (SEQ ID NOs:11 and 12) (protein)
chain: MTMTLHTKASGMALLHQIQGNELEPLNRPQLKIPLERPLGEVYLDSSKPAVYNYPEGAAYEFNAAAAANAQVYGQTGLPYGPGSEAAAFGSNGLGGFPPLNSVSPSPLMLLHPPPQLSPFLQPHGQQVPYYLENEPSGYTVREAGPPAFYRPNSDNRRQGGRERLASTNDKGSMAMESAKETRYCAVCNDYASGYHYGVWSCEGCKAFFKRSIQGHNDYMCPATNQCTIDKNRRKSCQACRLRKCYEVGMMKGGIRKDRRGGRMLKHKRQRDDGEGRGEVGSAGDMRAANLWPSPLMIKRSKKNSLALSLTADQMVSALLDAEPPILYSEYDPTRPFSEASMMGLLTNLADRQLVHMINWAKRVPGFVDLTLHDQVHLLECAWLEILMIDLVWRSMEHPGKLLFAPNLLLDRNQGKCVEGMVEIFDMLLATSSRFRMMNLQGEEFVCLKSIILLNSGVYTFLSSTLKSLEEKDHIHRVLDKITDTLIHLMAKAGLTLQQQHQRLAQLLLILSHIRHMSNKGMENLYSMKCKNVVPHYDLLLEMLDAHRLHAPTSRGGASVEETDQSHLATAGSTSSHSLQKYYISGEAEGFPATV
response to progesterone (progesterone): responses to progesterone at nanomolar concentrations
RBA Pg (progesterone) [1, 5]: 0.679 ± 0.021 (3)
Kd ([1]; calculated with Kd^ligand = (Kd^E2/RBA) × 100, read-out: Kd Pg (progesterone)): 119 nM
RBA T (testosterone) [2, 5]: 0.21 ± 0.06 (3)
Kd ([2]; calculated with Kd^ligand = (Kd^E2/RBA) × 100, read-out: Kd T (testosterone)): 388 nM
RBA Cs (corticosterone) [3, 5]: 0.008 ± 0.001 (3)
Kd ([3]; calculated with Kd^ligand = (Kd^E2/RBA) × 100, read-out: Kd Cs (corticosterone)): 10300 nM
response to corticosterone (corticosterone): significant responses to corticosterone; also recorded: responded to corticosterone at submillimolar concentrations
Kd [4]: 0.81 ± 0.23 nM
